Patent publication US20220211861A1, “DRUG CONJUGATES AND METHODS OF USING SAME” (The Board of Trustees of the Leland Staford Junior …, priority 2019, published 2022)
*1 amine or outer side, *2 acyl side, *3 side chain or, on linkers, in order; H or OH if unused. Where a SMILES comes first, the peptide text is derived from it. Bridges are numbered along the chain shown (N, C = ends). Roman numbers before positions name the chains, in order. [ ]: non-standard residue; d: D form. The star is where a group is joined. X1 = O=C([C@H](CCCn1nnc2c1-c1ccccc1CN([*:3])c1ccccc1-2)N[*:1])[*:2]; Dolaproine = CO[C@@H]([C@@H]1CCCN1)[C@@H](C)C(=O)O; X3 = O=C(CCC(=O)[*:1])NCCOCCOCCOCCC(=O)[*:2]; Dil = CC[C@H](C)[C@H](NC)[C@@H](CC(=O)O)OC; PABC = O=C(OCc1ccc(N[*:1])cc1)[*:2]; X2 = C[C@@H](N*)[C@@H](O)c1ccccc1; Cit = NC(=O)NCCC[C@H](N)C(=O)O; NMeV = CN[C@H](C(=O)O)C(C)C

How the values were obtained:
[1] = Liver and kidney histology (H&E) of treated mice; type: in vivo; conditions: scored by independent pathologist, after the 60-day experiment
Description: Despite the impressive in vivo efficacy of the KDCs, there are potential concerns of acute toxicity given its rapid renal filtration and high molar dose of MMAE. […] After the 60-day experiment, livers and kidneys were harvested from treated mice, fixed in 4% paraformaldehyde (PFA), then embedded in paraffin blocks for tissue sectioning. Sections were stained with hematoxylin and eosin to visualize cellular structures and scored by an independent pathologist for evidence of acute toxicity. Representative images shown in FIG. 26 were all free from indicators of toxicity and all samples were scored identically to healthy mice.

[2] = test system: U87MG glioblastoma hip xenografts; experiment: Ex vivo biodistribution of AF680-labeled conjugates; type: in vivo, mice; conditions: radiant efficiency of excised organs
Experimental: To further assess the tumor-to-background ratio, the uptake of fluorescently-labeled drug conjugate by each organ was measured ex vivo. Nude mice bearing U87MG glioblastoma hip xenografts were injected intravenously with Alexa Fluor 680-conjugated proteins. Mice were sacrificed after 3 or 24 h and organs were removed for imaging. […] Specifically, the liver, kidneys, spleen, pancreases, heart, lungs, bladder, quadriceps, and femur (FIG. 18).
Mice bearing U87MG flank xenografts, as described above, were injected intravenously with 1.5 nmol of Alexa Fluor 680-labeled K, KFc, or KAb. Organs (tumor, liver, kidneys, spleen, pancreas, heart, lungs, bladder, quadriceps muscle, and bone) were collected at end points of 4 h and 24 h. Organs were imaged using an IVIS Spectrum (PerkinElmer). The fluorophore-conjugated protein was detected using excitation/emission wavelengths of 640 nm and 710 nm, respectively. All imaging analysis was performed using Living Image software (Caliper Life Sciences).

[3] = test system: RFP-expressing U87MG spheroids; experiment: Confocal imaging of diffusion into tumor spheroids; type: cell-based; conditions: multiple z-heights
Experimental: To verify this mechanism, an in-vitro setup was constructed to test and visualize differences in solid tumor diffusion. Solid tumor spheroids of RFP-expressing U87MG glioblastoma cells were grown in ultra-low adhesion 96-well plates. Spheroids were grown to until reaching a diameter of ˜750 μm then treated with 200 nM of AF488-labeled KDC, KFDC, or KADC and incubated for 4 h. […]
To obtain a more quantitative comparison, the relative decay of green channel intensity was compared to red channel intensity from the constitutively expressed RFP. Because the red channel should be uniform, due to stable RFP expression, and is only attenuated by the optical density of the spheroid, this signal intensity was used to correct the signal intensity of the green channel.
Spheroids of RFP-expressing U87MG cells were formed by seeding round-bottom, 96-well ultra-low adhesion plates (Corning) with 4×10^3 cells/well and centrifuging at 1000×g for 10 minutes. Spheroids were grown for 4 days, until reaching a diameter of 750 μm. Spheroids were then incubated in fresh media containing 200 nM of Alexa Fluor 488-conjugated KDC, KFDC, or KADC for 4 h. […] Quantification was performed using FIJI image analysis software. Intensity was calculated radially from the center of each spheroid and plotted as the relative ratio of green intensity corrected for the intensity of RFP as an attenuation control.

[4] = test system: RFP-expressing U87MG cells; experiment: Inhibition of cell proliferation and cytotoxicity over time (IncuCyte, SYTOX green); type: cell-based; conditions: only 3 h of exposure
Experimental: To assess the activity of each drug conjugate in a model more representative of in vivo therapy, a similar assay was set up incubating RFP-expressing U87MG cells with SYTOX green and imaging every 4 h. After several time points, cells were washed and media was replaced with either fresh, drug-containing media or fresh, drug-free media (FIG. 14). All conjugates maintained high potency and inhibited proliferation after only 24 h exposure (FIG. 14B). […] The inhibition of cellular proliferation mirrored the measured cytotoxicity. All conjugates induced nearly 100% cell death when incubated without washing, with a wash of drug-containing media, or with washing after 24 h (FIG. 14D, 14E). Each construct was also evaluated under an even more stringent condition, with washing after 3 h of exposure. […] KFDC and KADC experienced substantial reductions in their respective potencies and each inhibited ˜50% of cell proliferation.
RFP-expressing U87MG cells were seeded in a 96-well plate (Corning) at a density of 2.5×10^3 cells per well and grown overnight. Cells were then treated with 200 μL of fresh media containing 10 nM Cytox Green (ThermoFisher) and KDC, KFDC, KADC, or MMAE, at the approximate ED50 of 10 nM or at the saturating concentration of 100 nM. Cells were incubated in an IncuCyte S3 Live-Cell Analysis System for 5 d with images collected every 4 h. […]

Q: What does the source list for `CC[C@H](C)[C@@H]([C@@H](CC(=O)N1CCC[C@H]1[C@H](OC)[C@@H](C)C(=O)N[C@H](C)[C@@H](O)c1ccccc1)OC)N(C)C(=O)[C@@H](NC(=O)[C@H](C(C)C)N(C)C(=O)OCc1ccc(NC(=O)[C@H](CCCNC(N)=O)NC(=O)[C@@H](NC(=O)CCOCCOCCOCCNC(=O)CCC(=O)N2Cc3ccccc3-c3c(nnn3CCC[C@@H]3NC(=O)[C@@H]4CSSC[C@@H]5NC(=O)[C@H](C(C)C)NC(=O)[C@H](CSSC[C@H](NC(=O)CN)C(=O)N6CCC[C@H]6C(=O)N[C@@H](CCCNC(=N)N)C(=O)N6CCC[C@H]6C(=O)N[C@@H](CCCNC(=N)N)C(=O)NCC(=O)N[C@@H](CC(=O)O)C(=O)N[C@@H](CC(N)=O)C(=O)N6CCC[C@H]6C(=O)N6CCC[C@H]6C(=O)N[C@@H](CC(C)C)C(=O)N[C@@H]([C@@H](C)O)C(=O)N4)NC(=O)CNC(=O)[C@H](C)NC(=O)[C@H](CC(C)C)NC(=O)[C@H](CSSC[C@@H](C(=O)NCC(N)=O)NC(=O)[C@H](Cc4ccc(O)cc4)NC(=O)CNC(=O)[C@H](CC(N)=O)NC(=O)[C@@H]4CCCN4C(=O)CNC5=O)NC(=O)[C@H](CC(=O)O)NC(=O)[C@H](CO)NC(=O)[C@H](CC(=O)O)NC(=O)[C@H](CCC(N)=O)NC3=O)-c3ccccc32)C(C)C)cc1)C(C)C` [KDC] (I: H-GCPRPRGDNPPLTC[X1]QDSDCLAGCVCGPNGYCG-NH2 / II: V[Cit][PABC][NMeV]V[Dil][Dolaproine]-X2; disulfide I:2-I:24, I:14-I:26, I:20-I:32; linker I:15-II:N via X3; N-terminus assumed)?
A: liver and kidney histology, acute toxicity [1]: no evidence of acute toxicity; organ uptake ex vivo [2]: higher kidney and bladder uptake; green intensity in the center of each optical slice as a function of depth [3]: remains relatively constant; inhibition of proliferation [4]: complete cell inhibition
